Laboratory results from publication PMC5523735.
Read-outs that look alike come from different tables or passages of the source.

Tests used:
[1] = proBNP/BNP ratio in human iPS-CM medium; conditions: glycan lost; control: control oligo
[2] = proBNP/BNP ratio in NRVM medium; conditions: glycan lost
[3] = gel filtration: proBNP peak relative to mature BNP peak; conditions: glycan lost; control: WT-proBNP
[4] = proBNP/BNP ratio in cardiac fibroblast medium; conditions: glycan lost; control: WT-proBNP
[5] = control: control oligo, WT-proBNP

Substance: human proBNP (prohormone for brain natriuretic peptide): GALNT1 siRNA
- other: proteolytic processing [1]: increases
- other: proteolytic processing [2, 5]: increases

Substance: human proBNP (prohormone for brain natriuretic peptide): GALNT2 siRNA
- other: proteolytic processing [1]: increases
- other: proteolytic processing [2, 5]: increases

Substance: human proBNP (prohormone for brain natriuretic peptide): T48/T71glyco
- other: proteolytic processing ([2]; control: WT-proBNP): increases

Substance: human proBNP (prohormone for brain natriuretic peptide): T48A
- other: proteolytic processing [3]: increases
- other: proteolytic processing ([2]; control: WT-proBNP): increases
- other: proteolytic processing [4]: increases

Substance: human proBNP (prohormone for brain natriuretic peptide): T48A/T71A
- other: proteolytic processing ([2]; control: WT-proBNP): increases

Substance: human proBNP (prohormone for brain natriuretic peptide): T71A
- other: proteolytic processing [3]: increases
- other: proteolytic processing ([2]; control: WT-proBNP): increases
- other: proteolytic processing [4]: increases

Substance: human proBNP (prohormone for brain natriuretic peptide): non-glyco
- other: proteolytic processing ([2]; control: WT-proBNP): increases

Substance: proBNP (prohormone for brain natriuretic peptide): GALNT1 or GALNT2 siRNA knockdown
- other (O-glycosylation other at T48): increases
- other (O-glycosylation other at T71): increases

Substance: proBNP (prohormone for brain natriuretic peptide): T48/T71glyco (T36A, S37A, S44A, S53A, T58A)
- other (O-glycosylation other at S37): increases
- other (O-glycosylation other at S44): increases
- other (O-glycosylation other at S53): increases
- other (O-glycosylation other at T36): increases
- other (O-glycosylation other at T58): increases

Substance: proBNP (prohormone for brain natriuretic peptide): T48A
- other (O-glycosylation other at T48): increases

Substance: proBNP (prohormone for brain natriuretic peptide): T48A (cardiac fibroblasts)
- other (O-glycosylation other at T48): increases

Substance: proBNP (prohormone for brain natriuretic peptide): T48A/T71A
- other (O-glycosylation other at T48): increases
- other (O-glycosylation other at T71): increases

Substance: proBNP (prohormone for brain natriuretic peptide): T71A
- other (O-glycosylation other at T71): increases

Substance: proBNP (prohormone for brain natriuretic peptide): T71A (cardiac fibroblasts)
- other (O-glycosylation other at T71): increases

Substance: proBNP (prohormone for brain natriuretic peptide): non-glyco versus T48glyco (only Thr48 preserved, other 6 sites Ala)
- other (O-glycosylation other at T48): increases

Substance: proBNP (prohormone for brain natriuretic peptide): non-glyco versus T71glyco (only Thr71 preserved, other 6 sites Ala)
- other (O-glycosylation other at T71): increases
